Blank lines part the entries; values can stand above or below the binder they belong to.
B1: Hyper IL-11 (HIL-11), IL-11 covalently linked to sIL-11R (other)
chain: SSPCPQAWGPPGVQYGQPGRSVKLCCPGVTAGDPVSWFRDGEPKLLQGPDSGLGHELVLAQADSTDEGTYICQTLDGALGGTVTLQLGYPPARPVVSCQAADYENFSCTWSPSQISGLPTRYLTSYRKKTVLGADSQRRSPSTGPWPCPQDPLGAARCVVHGAEFWSQYRINVTEVNPLGASTRLLDVSLQSILRPDPPQGLRVESVPGYPRRLRASWTYPASWPCQPHFLLKFRLQYRPAQHPAWSTVEPAGLEEVITDAVAGLPHAVRVSARDFLDAGTWSTWSPEAWGTPSTGTIPKEIPAWGQLHTQPEVEPQVDSPAPPRPSLQPHPRLLDHRDSVEQVAVLAPGPPPGPPRVSPDPRAELDSTVLLTRSLLADTRQLAAQLRDKFPADGDHNLDSLPTLAMSAGALGALQLPGVLTRLRADLLSYLRHVQWLRRAGGSSLKTLEPELGTLQARLDRLLRRLQLLMSRLALPQPPPDPPAPPLAPPSSAWGGIRAAHAILGGLHLTLDWAVRGLLLLKTRL
B2: sgp130Fc (Fc fusion, human, UniProt P40189 23-619, looked up)
chain: ELLDPCGYISPESPVVQLHSNFTAVCVLKEKCMDYFHVNANYIVWKTNHFTIPKEQYTIINRTASSVTFTDIASLNIQLTCNILTFGQLEQNVYGITIISGLPPEKPKNLSCIVNEGKKMRCEWDGGRETHLETNFTLKSEWATHKFADCKAKRDTPTSCTVDYSTVYFVNIEVWVEAENALGKVTSDHINFDPVYKVKPNPPHNLSVINSEELSSILKLTWTNPSIKSVIILKYNIQYRTKDASTWSQIPPEDTASTRSSFTVQDLKPFTEYVFRIRCMKEDGKGYWSDWSEEASGITYEDRPSKAPSFWYKIDPSHTQGYRTVQLVWKTLPPFEANGKILDYEVTLTRWKSHLQNYTVNATKLTVNLTNDRYLATLTVRNLVGKSDAAVLTIPACDFQATHPVMDLKAFPKDNMLWVEWTTPRESVKKYILEWCVLSDKAPCITDWQQEDGTVHRTYLRGNLAESKCYLITVTPVYADGPGSPESIKAYLKQAPPSKGPTVRTKKVGKNEAVLEWDQLPVDVQNGFIRNYTIFYRTIIGNETAVNVDSSHTEYTLSSLTSDTLYMVRMAAYTDEGGKDGPEFTFTTPKFAQGEIE
B3: sgp130^R281QFc (Fc fusion, human, UniProt P40189 23-619, looked up)
chain: ELLDPCGYISPESPVVQLHSNFTAVCVLKEKCMDYFHVNANYIVWKTNHFTIPKEQYTIINRTASSVTFTDIASLNIQLTCNILTFGQLEQNVYGITIISGLPPEKPKNLSCIVNEGKKMRCEWDGGRETHLETNFTLKSEWATHKFADCKAKRDTPTSCTVDYSTVYFVNIEVWVEAENALGKVTSDHINFDPVYKVKPNPPHNLSVINSEELSSILKLTWTNPSIKSVIILKYNIQYRTKDASTWSQIPPEDTASTQSSFTVQDLKPFTEYVFRIRCMKEDGKGYWSDWSEEASGITYEDRPSKAPSFWYKIDPSHTQGYRTVQLVWKTLPPFEANGKILDYEVTLTRWKSHLQNYTVNATKLTVNLTNDRYLATLTVRNLVGKSDAAVLTIPACDFQATHPVMDLKAFPKDNMLWVEWTTPRESVKKYILEWCVLSDKAPCITDWQQEDGTVHRTYLRGNLAESKCYLITVTPVYADGPGSPESIKAYLKQAPPSKGPTVRTKKVGKNEAVLEWDQLPVDVQNGFIRNYTIFYRTIIGNETAVNVDSSHTEYTLSSLTSDTLYMVRMAAYTDEGGKDGPEFTFTTPKFAQGEIE
B4: sgp130^FlyFc (Fc fusion, human, UniProt P40189 23-619, looked up)
chain: ELLDPCGYISPESPVVQLHSNFTAVCVLKEKCMDYFHVNANYIVWKTNHFTIPKEQYTIINRTASSVTFTDIASLNIQLYCNILTFGQLEFLVYGITIISGLPPEKPKNLSCIVNEGKKMRCEWDGGRETHLETNFTLKSEWATHKFADCKAKRDTPTSCTVDYSTVYFVNIEVWVEAENALGKVTSDHINFDPVYKVKPNPPHNLSVINSEELSSILKLTWTNPSIKSVIILKYNIQYRTKDASTWSQIPPEDTASTRSSFTVQDLKPFTEYVFRIRCMKEDGKGYWSDWSEEASGITYEDRPSKAPSFWYKIDPSHTQGYRTVQLVWKTLPPFEANGKILDYEVTLTRWKSHLQNYTVNATKLTVNLTNDRYLATLTVRNLVGKSDAAVLTIPACDFQATHPVMDLKAFPKDNMLWVEWTTPRESVKKYILEWCVLSDKAPCITDWQQEDGTVHRTYLRGNLAESKCYLITVTPVYADGPGSPESIKAYLKQAPPSKGPTVRTKKVGKNEAVLEWDQLPVDVQNGFIRNYTIFYRTIIGNETAVNVDSSHTEYTLSSLTSDTLYMVRMAAYTDEGGKDGPEFTFTTPKFAQGEIE

How the values were obtained:
sgp130^FlyFc [1] = molecular target: B4; test: SPR; Biacore X100, multi-cycle; sgp130Fc variants captured on a Protein A chip (~500 RU); HIL-6 or HIL-11 injected at 0.1953-50 nM, 30 µl/min; 25 °C, PBS pH 7.4, 0.05% surfactant P20; 1:1 binding model; details: both partners purified
sgp130^R281QFc = molecular target: B3; test: as above; details: both partners purified
sgp130Fc [2] = molecular target: B2; test: as above; details: both partners purified
[3] = molecular target: B1; test: cell-based or functional assay
sgp130^FlyFc [4] = molecular target: B4; test: SPR; sgp130Fc and sgp130^FlyFc captured on a ProtA chip; increasing concentrations of IL-27 injected; details: both partners purified
sgp130Fc [5] = molecular target: B2; test: as above; details: both partners purified

Binder: B1
Kd (sgp130^FlyFc [1]): 0.67 nM | Kd (sgp130^R281QFc): 0.61 nM | Kd (sgp130Fc [2]): 0.069 nM

Binder: B2
IC50 of inhibition of H-IL-11 (10 ng/ml) induced proliferation of Ba/F3-gp130 cells (blocks HIL-11 from membrane-bound gp130) [3]: 0.12 nM

Binder: B3
IC50 of inhibition of H-IL-11 (10 ng/ml) induced proliferation of Ba/F3-gp130 cells (blocks HIL-11 from membrane-bound gp130) [3]: 72.8 nM

Binder: B4
IC50 of inhibition of H-IL-11 (10 ng/ml) induced proliferation of Ba/F3-gp130 cells (blocks HIL-11 from membrane-bound gp130) [3]: 40.7 nM

Kd (sgp130^FlyFc [4]): 58 nM | Kd (sgp130Fc [5]): 69 nM
B5: IL-27 (complex)
chain 1: FPRPPGRPQLSLQELRREFTVSLHLARKLLSEVRGQAHRFAESHLPGVNLYLLPLGEQLPDVSLTFQAWRRLSDPERLCFISTTLQPFHALLGGLGTQGRWTNMERMQLWAMRLDLRDLQRHLRFQVLAAGFNLPEEEEEEEEEEEEERKGLLPGALGSALQGPAQVSWPQLLSTYRLLHSLELVLSRAVRELLLLSKAGHSVWPLGFPTLSPQP
chain 2: RKGPPAALTLPRVQCRASRYPIAVDCSWTLPPAPNSTSPVSFIATYRLGMAARGHSWPCLQQTPTSTSCTITDVQLFSMAPYVLNVTAVHPWGSSSSFVPFITEHIIKPDPPEGVRLSPLAERQLQVQWEPPGSWPFPEIFSLKYWIRYKRQGAARFHRVGPIEATSFILRAVRPRARYYVQVAAQDLTDYGELSDWSLPATATMSLGK

From publication PMC8649222, “Exclusive inhibition of IL-6 trans-signaling by soluble gp130^FlyRFc” (Cytokine: X, 2021)
